In patent US20190382484A1 (Chugai, published 2019):
Substitutions are numbered along the chain they refer to.

B1: antibody-half molecule B2 with IC17H / IC17L-k0 (IC17H-DB402v2/IC17L-k0) (antibody, human IgG1, kappa)
heavy: QVQLQQSGPQLVRPGASVKISCKASGYSFTSYWMHWVNQRPGQGLEWIGMIDPSYSETRLNQKFKDKATLTVDKSSSTAYMQLSSPTSEDSAVYYCALYGNYFDYWGQGTTLTVSSASTKGPSVFPLAPSSKSTSGGTAALGCLVKDYFPEPVTVSWNSGALTSGVHTFPAVLQSSGLYSLSSVVTVPSSSLGTQTYICNVNHKPSNTKVDKKVEPKSCDKTHTSPPSPAPELLGGPSVFLFPPKPKDTLMISRTPEVTCVVVDVSHEEPEVKFNWYVDGVEVHNAKTKPREEQYNSTYRVVSVLTVLHQDWLNGKEYKCKVSNDALPMPIEETISKAKGQPREPQVYTLPPSRDELTKNQVSLTCLVKGFYPSDIAVEWESNGQPENNYKTTPPYLDSDGSFFLYSHLTVDKSRWQQGNVFSCSVMHEALHNHYTQESLSLSP
light: DIQMTQSSSSFSVSLGDRVTITCKASEDIYNRLAWYQQKPGNAPRLLISGATSLETGVPSRFSGSGSGKDYTLSITSLQTEDVATYYCQQYWSTPYTFGGGTKLEVKRTVAAPSVFIFPPSDEQLKSGTASVVCLLNNFYPREAKVQWKVDNALQSGNSQESVTEQDSKDSTYSLSSTLTLSKADYEKHKVYACEVTHQGLSSPVTKSFNRGEC
B2: antibody-half molecule B3 with IC17H / IC17L-k0 (IC17H-DB405v2/IC17L-k0) (antibody, human IgG1, kappa)
heavy: B1 heavy with H408T
light: B1 light
B3: EGLVH-wtIgG4C4/EGLVL-k0 (antibody, V domains shown)
VH: QDQLVQSGAEVKKPGASVKVSCKASGFNIKDTYIQWVRQAPGQGLEWMGRIDPLRKQTKYREKFEGRVTITADTSTNTAYMELSSLRSEDTAVYYCVRSGREFDYWGQGTLVTVSS
VL: DIQMTQSPSSLSASVGDRVTITCRASQDIHKYIAWYQQKPGQAPRLLIQYTSTLQPGVPSRFSGSGSGTDYTFTISSLQPEDIATYYCLQYEQLRTFGGGTKVEIKR
notes: also called control of the half molecule state of antibody
B4: MRAH-DA303v2/MRAL-k0 + MRAH-DB220v2/MRAL-k0 (antibody, human IgG1, kappa)
heavy 1: QVQLQESGPGLVRPSQTLSLTCTVSGYSITSDHAWSWVRQPPGRGLEWIGYISYSGITTYNPSLKSRVTMLRDTSKNQFSLRLSSVTAADTAVYYCARSLARTTAMDYWGQGSLVTVSSASTKGPSVFPLAPSSKSTSGGTAALGCLVKDYFPEPVTVSWNSGALTSGVHTFPAVLQSSGLYSLSSVVTVPSSSLGTQTYICNVNHKPSNTKVDKKVEPKSCDKTHTSPPSPAPEYQWGPMVFLFPPKPKDTLMISRTPEVTCVVVDVSDEEPEVKFNWYVDGVEVHNAKTKPREEQYNATYRVVSVLTVLHQDWLNGKEYKCKVSNKALPAPIEKTISKAKGQPREPQVYTLPPSRKELTKNQVSLTCLVKGFYPSDIAVEWESNGQPENNYKTTPPYLDSDGSFFLYSDLTVDKSRWQQGNVFSCSVMHEALHNHYTQKSLSLSP
heavy 2: QVQLQESGPGLVRPSQTLSLTCTVSGYSITSDHAWSWVRQPPGRGLEWIGYISYSGITTYNPSLKSRVTMLRDTSKNQFSLRLSSVTAADTAVYYCARSLARTTAMDYWGQGSLVTVSSASTKGPSVFPLAPSSKSTSGGTAALGCLVKDYFPEPVTVSWNSGALTSGVHTFPAVLQSSGLYSLSSVVTVPSSSLGTQTYICNVNHKPSNTKVDKKVEPKSCDKTHTSPPSPAPELLGGPSVFLFPPKPKDTLMISRTPEVTCVVVDVSHEEPEVKFNWYVDGVEVHNAKTKPREEQYNSTYRVVSVLTVLHQDWLNGKEYKCKVSNDALPMPIEETISKAKGQPREPQVYTLPPSRDELTKNQVSLTCLVKGFYPSDIAVEWESNGQPENNYKTTPPYLDSDGSFFLYSDLTVDKSRWQQGNVFSCSVMHEALHNHYTQESLSLSP
light: not shown
notes: Mixture of the two antibody-half molecules, which form a non-covalent heterodimer when captured on antigen; also called A1 + B1
B5: MRAH-DA405v2/MRAL-k0 (antibody, human IgG1, kappa)
heavy: B4 heavy 1 with D411T
light: not shown
notes: Antibody-half molecule (one H chain, one L chain); also called A3; antibody-half molecule A3
B6: MRAH-DA303v2/MRAL-k0 (antibody, human IgG1, kappa)
heavy: B4 heavy 1
light: not shown
notes: Antibody-half molecule (one H chain, one L chain); L chain MRAL-k0; also called A1; antibody-half molecule A1
B7: MRAH-DB424v2/MRAL-k0 (antibody, human IgG1, kappa)
heavy: B4 heavy 2 with E359N
light: not shown
notes: Antibody-half molecule (one H chain, one L chain); also called antibody-half molecule B4
B8: MRAH-DA430v2/MRAL-k0 + MRAH-DB430v2/MRAL-k0 (antibody, human IgG1, kappa)
heavy 1: B4 heavy 1 with E359L
heavy 2: B4 heavy 2 with E359L
light: not shown
notes: Mixture of the two antibody-half molecules, which form a non-covalent heterodimer when captured on antigen; also called A5 + B5
B9: MRAH-DA424v2/MRAL-k0 + MRAH-DB424v2/MRAL-k0 (antibody, human IgG1, kappa)
heavy 1: B4 heavy 1 with E359N
heavy 2: B4 heavy 2 with E359N
light: not shown
notes: Mixture of the two antibody-half molecules, which form a non-covalent heterodimer when captured on antigen; also called A4 + B4
B10: MRAH-DA402v2/MRAL-k0 + MRAH-DB402v2/MRAL-k0 (antibody, human IgG1, kappa)
heavy 1: B4 heavy 1 with D411H
heavy 2: B4 heavy 2 with D411H
light: not shown
notes: Mixture of the two antibody-half molecules, which form a non-covalent heterodimer when captured on antigen; also called A2 + B2
B11: MRAH-DB430v2/MRAL-k0 (antibody, human IgG1, kappa)
heavy: B4 heavy 2 with E359L
light: not shown
notes: Antibody-half molecule (one H chain, one L chain); also called B5; antibody-half molecule B5
B12: MRAH-DB405v2/MRAL-k0 (antibody, human IgG1, kappa)
heavy: B4 heavy 2 with D411T
light: not shown
notes: Antibody-half molecule (one H chain, one L chain); also called B3; antibody-half molecule B3
B13: MRAH-DA402v2/MRAL-k0 (antibody, human IgG1, kappa)
heavy: B4 heavy 1 with D411H
light: not shown
notes: Antibody-half molecule (one H chain, one L chain); also called A2; antibody-half molecule A2
B14: MRAH-DA424v2/MRAL-k0 (antibody, human IgG1, kappa)
heavy: B4 heavy 1 with E359N
light: not shown
notes: Antibody-half molecule (one H chain, one L chain); also called antibody-half molecule A4
B15: MRAH-DA405v2/MRAL-k0 + MRAH-DB405v2/MRAL-k0 (antibody, human IgG1, kappa)
heavy 1: B4 heavy 1 with D411T
heavy 2: B4 heavy 2 with D411T
light: not shown
notes: Mixture of the two antibody-half molecules, which form a non-covalent heterodimer when captured on antigen; also called A3 + B3
B16: MRAH-DA430v2/MRAL-k0 (antibody, human IgG1, kappa)
heavy: B4 heavy 1 with E359L
light: not shown
notes: Antibody-half molecule (one H chain, one L chain); also called A5; antibody-half molecule A5
B17: MRAH-DB402v2/MRAL-k0 (antibody, human IgG1, kappa)
heavy: B4 heavy 2 with D411H
light: not shown
notes: Antibody-half molecule (one H chain, one L chain); also called B2; antibody-half molecule B2
B18: MRAH-DB220v2/MRAL-k0 (antibody, human IgG1, kappa)
heavy: B4 heavy 2
light: not shown
notes: Antibody-half molecule (one H chain, one L chain); also called B1; antibody-half molecule B1

Tests used:
[1] = target: antibody-half molecule A2 with PF1H / PF1L-k0 (PF1H-DA402v2/PF1L-k0); assay: SPR (Biacore T200), about 50 RU of half molecule A captured via biotinylated antigen peptide, half molecule B as analyte at 2.5 mg/mL, 25 C
Procedure: (§1) The interaction between the obtained antibody-half molecules was analyzed using Biacore (registered trademark) T200. Biotin CAPture Kit, Series S (GE Healthcare) was used for the measurement, and HBS-EP+10X (GE Healthcare) diluted 1/10th was used as a running buffer. The measurement temperature was 25° C. For the sensor chip, Series S Sensor Chip CAP (GE Healthcare) onto which previously-biotinylated antigen peptides were allowed to interact and thereby immobilized was used. These chips were allowed to capture approximately 50 RU of the antibody-half molecule A of interest and then interact with the antibody-half molecule B of interest diluted with the running buffer at 2.5 mg/mL for 180 seconds at a flow rate of 30 μL/min, and measurement was carried out. The molar binding ratio was calculated based on the following Formula 2. The antibody-half molecule A captured on the chip was washed as described in the instructions attached to the kit, and the chip was regenerated and reused.
(§2) At this time, for the antibody-half molecules to be captured, PF1H (SEQ ID NO: 22), which is the H chain variable region portion of the anti-human IL6 receptor antibody described in WO 2009/041621, was used as the H chain variable region portion, PF1L (SEQ ID NO: 23), which is the L chain variable region portion of the anti-human IL6 receptor antibody described in WO 2009/041621, was used as the L chain variable region portion, and k0 was used as the L chain constant region portion. In addition, for the antibody-half molecules used as analytes, IC17H (SEQ ID NO: 24), which is the anti-KLH antibody described in WO 2015/174439, was used as the H chain variable region, IC17L (SEQ ID NO: 25), which is the anti-KLH antibody described in WO 2015/174439, was used as the L chain variable region, and k0 was used as the L chain constant region.

[2] = target: antibody-half molecule A3 with PF1H / PF1L-k0 (PF1H-DA405v2/PF1L-k0); assay: as above
Procedure: as §1, §2

[3] = target: the molecule itself; assay: size exclusion chromatography (G3000SWXL), absorbance 280 nm; self-association of the half molecule [panel b]
Procedure: The protein concentration of the antibody-half molecules was 0.25 mg/mL, and 80 μL was injected.
Evaluation of the molecular weight of the prepared antibody-half molecules A and B was carried out by size exclusion chromatography.

[4] = target: T1, FcγRIIIa extracellular domain (UniProt P08637 17-208, limits assumed); assay: SPR (Biacore T200), mixed half molecules captured via biotinylated antigen peptide on CAP chip, FcγR as analyte, 25 C
T1 construct: extracellular domain; Purified over HisTrap, so a His tag is implied
T1 sequence (P08637 17-208 limits assumed): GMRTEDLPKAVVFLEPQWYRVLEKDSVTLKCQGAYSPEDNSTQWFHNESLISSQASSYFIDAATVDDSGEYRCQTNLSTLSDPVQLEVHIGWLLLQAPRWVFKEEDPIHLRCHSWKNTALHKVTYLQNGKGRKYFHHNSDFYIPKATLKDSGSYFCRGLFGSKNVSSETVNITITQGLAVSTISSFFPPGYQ
Procedure: Interaction analysis of antibody-half molecules of interest and FcγR was performed using Biacore (registered trademark) T200. Biotin CAPture Kit, Series S (GE Healthcare) was used for the measurement, and HBS-EP+10X (GE Healthcare) diluted 1/10th was used as a running buffer. The measurement temperature was 25° C. For the sensor chip, Series S Sensor Chip CAP (GE Healthcare) onto which previously-biotinylated antigen peptides were allowed to interact and thereby immobilized was used. These chips were allowed to capture the antibody-half molecules of interest and then interact with FcγR diluted with the running buffer. The antigens and antibody-half molecules captured on the chip were washed as described in the instructions attached to the kit, and the chips were regenerated and reused.

[5] = target: T1, FcγRIIIa extracellular domain; assay: SPR (Biacore T200), half molecule captured via biotinylated antigen peptide on CAP chip, FcγR as analyte

Binder	binding result [5]	further results
B1	–	molar binding ratio [1]: 0.63
B2	–	molar binding ratio [2]: 0.54
B3	–	binding result [3]: no binding (tested: 0.25 mg/mL injected)
B4	–	Kd [4]: 6.1 nM
B5	no binding	–
B6	no binding	–
B7	no binding	–
B8	–	Kd [4]: 53 nM
B9	–	Kd [4]: 10 nM
B10	–	Kd [4]: 0.95 nM
B11	no binding	–
B12	no binding	–
B13	no binding	–
B14	no binding	–
B15	–	Kd [4]: 1.2 nM
B16	no binding	–
B17	no binding	–
B18	no binding	–
